Tests used:
Test in all cases: cell-based or functional assay
[1] = target: Bacillus subtilis xylanase A mutant N114F (Bacillus subtilis) (UniProt P18429)
[2] = target: Bacillus subtilis xylanase A mutant I15K (Bacillus subtilis) (UniProt P18429)
[3] = target: Bacillus subtilis xylanase A mutant N114K (Bacillus subtilis) (UniProt P18429)
[4] = target: Bacillus subtilis xylanase A mutant Q175S (Bacillus subtilis) (UniProt P18429)
[5] = target: Bacillus subtilis xylanase A mutant R122D (Bacillus subtilis) (UniProt P18429)
[6] = target: Bacillus subtilis xylanase A mutant G120F (Bacillus subtilis) (UniProt P18429)
[7] = target: Bacillus subtilis xylanase A mutant R122A (Bacillus subtilis) (UniProt P18429)
[8] = target: Bacillus subtilis xylanase A mutant S31K (Bacillus subtilis) (UniProt P18429)
[9] = target: Bacillus subtilis xylanase A mutant D119N (Bacillus subtilis) (UniProt P18429)
[10] = target: Bacillus subtilis xylanase A mutant N114D (Bacillus subtilis) (UniProt P18429)
[11] = target: Bacillus subtilis xylanase A mutant D11K (Bacillus subtilis) (UniProt P18429)
[12] = target: Bacillus subtilis xylanase A mutant N29Y (Bacillus subtilis) (UniProt P18429)
[13] = target: Bacillus subtilis xylanase A mutant G120N (Bacillus subtilis) (UniProt P18429)
[14] = target: Bacillus subtilis xylanase A mutant D121A (Bacillus subtilis) (UniProt P18429)
[15] = target: Bacillus subtilis xylanase A mutant N17Y (Bacillus subtilis) (UniProt P18429)
[16] = target: Bacillus subtilis xylanase A mutant N29K (Bacillus subtilis) (UniProt P18429)
[17] = target: Bacillus subtilis xylanase A mutant D119Y (Bacillus subtilis) (UniProt P18429)
[18] = target: Bacillus subtilis xylanase A mutant D11N (Bacillus subtilis) (UniProt P18429)
[19] = target: Bacillus subtilis wild type xylanase A (Bacillus subtilis) (UniProt P18429)
[20] = target: Bacillus subtilis xylanase A mutant T123Y (Bacillus subtilis) (UniProt P18429)
[21] = target: Bacillus subtilis xylanase A mutant D121N (Bacillus subtilis) (UniProt P18429)
[22] = target: Bacillus subtilis xylanase A mutant D11F (Bacillus subtilis) (UniProt P18429)
[23] = target: Bacillus subtilis xylanase A mutant G120Y (Bacillus subtilis) (UniProt P18429)
[24] = target: Bacillus subtilis xylanase A mutant G34D (Bacillus subtilis) (UniProt P18429)
[25] = target: Bacillus subtilis xylanase A mutant N17D (Bacillus subtilis) (UniProt P18429)
[26] = target: Bacillus subtilis xylanase A mutant D11W (Bacillus subtilis) (UniProt P18429)
[27] = target: Bacillus subtilis xylanase A mutant G120K (Bacillus subtilis) (UniProt P18429)

Substance: wheat endogenous xylanase inhibitor
- Relative inhibition, % at 1, 26 XIU/ml [1]: 84%
- Relative inhibition, % at 3, 15 XIU/ml [1]: 54%
- Relative inhibition, % at 6, 3 XIU/ml [1]: 39%
- Relative inhibition, % at 12, 6 XIU/ml [1]: 34%
- Relative inhibition, % at 1, 26 XIU/ml [2]: 84%
- Relative inhibition, % at 3, 15 XIU/ml [2]: 47%
- Relative inhibition, % at 6, 3 XIU/ml [2]: 28%
- Relative inhibition, % at 12, 6 XIU/ml [2]: 23%
- Relative inhibition, % at 1, 26 XIU/ml [3]: 87%
- Relative inhibition, % at 3, 15 XIU/ml [3]: 56%
- Relative inhibition, % at 6, 3 XIU/ml [3]: 33%
- Relative inhibition, % at 12, 6 XIU/ml [3]: 24%
- Relative inhibition, % at 1, 26 XIU/ml [4]: 88%
- Relative inhibition, % at 3, 15 XIU/ml [4]: 59%
- Relative inhibition, % at 6, 3 XIU/ml [4]: 30%
- Relative inhibition, % at 12, 6 XIU/ml [4]: 19%
- Relative inhibition, % at 1, 26 XIU/ml [5]: 85%
- Relative inhibition, % at 3, 15 XIU/ml [5]: 59%
- Relative inhibition, % at 6, 3 XIU/ml [5]: 41%
- Relative inhibition, % at 12, 6 XIU/ml [5]: 28%
- Relative inhibition, % at 1, 26 XIU/ml [6]: 71%
- Relative inhibition, % at 3, 15 XIU/ml [6]: 35%
- Relative inhibition, % at 6, 3 XIU/ml [6]: 18%
- Relative inhibition, % at 12, 6 XIU/ml [6]: 15%
- Relative inhibition, % at 1, 26 XIU/ml [7]: 78%
- Relative inhibition, % at 3, 15 XIU/ml [7]: 46%
- Relative inhibition, % at 6, 3 XIU/ml [7]: 33%
- Relative inhibition, % at 12, 6 XIU/ml [7]: 26%
- Relative inhibition, % at 1, 26 XIU/ml [8]: 77%
- Relative inhibition, % at 3, 15 XIU/ml [8]: 42%
- Relative inhibition, % at 6, 3 XIU/ml [8]: 23%
- Relative inhibition, % at 12, 6 XIU/ml [8]: 23%
- Relative inhibition, % at 1, 26 XIU/ml [9]: 91%
- Relative inhibition, % at 3, 15 XIU/ml [9]: 74%
- Relative inhibition, % at 6, 3 XIU/ml [9]: 44%
- Relative inhibition, % at 12, 6 XIU/ml [9]: 22%
- Relative inhibition, % at 1, 26 XIU/ml [10]: 84%
- Relative inhibition, % at 3, 15 XIU/ml [10]: 57%
- Relative inhibition, % at 6, 3 XIU/ml [10]: 39%
- Relative inhibition, % at 12, 6 XIU/ml [10]: 29%
- Relative inhibition, % at 1, 26 XIU/ml [11]: 109%
- Relative inhibition, % at 3, 15 XIU/ml [11]: 112%
- Relative inhibition, % at 6, 3 XIU/ml [11]: 113%
- Relative inhibition, % at 12, 6 XIU/ml [11]: 116%
- Relative inhibition, % at 1, 26 XIU/ml [12]: 85%
- Relative inhibition, % at 3, 15 XIU/ml [12]: 49%
- Relative inhibition, % at 6, 3 XIU/ml [12]: 30%
- Relative inhibition, % at 12, 6 XIU/ml [12]: 24%
- Relative inhibition, % at 1, 26 XIU/ml [13]: 84%
- Relative inhibition, % at 3, 15 XIU/ml [13]: 49%
- Relative inhibition, % at 6, 3 XIU/ml [13]: 29%
- Relative inhibition, % at 12, 6 XIU/ml [13]: 23%
- Relative inhibition, % at 1, 26 XIU/ml [14]: 81%
- Relative inhibition, % at 3, 15 XIU/ml [14]: 50%
- Relative inhibition, % at 6, 3 XIU/ml [14]: 27%
- Relative inhibition, % at 12, 6 XIU/ml [14]: 21%
- Relative inhibition, % at 1, 26 XIU/ml [15]: 79%
- Relative inhibition, % at 3, 15 XIU/ml [15]: 42%
- Relative inhibition, % at 6, 3 XIU/ml [15]: 23%
- Relative inhibition, % at 12, 6 XIU/ml [15]: 19%
- Relative inhibition, % at 1, 26 XIU/ml [16]: 83%
- Relative inhibition, % at 3, 15 XIU/ml [16]: 50%
- Relative inhibition, % at 6, 3 XIU/ml [16]: 30%
- Relative inhibition, % at 12, 6 XIU/ml [16]: 23%
- Relative inhibition, % at 1, 26 XIU/ml [17]: 87%
- Relative inhibition, % at 3, 15 XIU/ml [17]: 50%
- Relative inhibition, % at 6, 3 XIU/ml [17]: 28%
- Relative inhibition, % at 12, 6 XIU/ml [17]: 22%
- Relative inhibition, % at 1, 26 XIU/ml [18]: 93%
- Relative inhibition, % at 3, 15 XIU/ml [18]: 72%
- Relative inhibition, % at 6, 3 XIU/ml [18]: 53%
- Relative inhibition, % at 12, 6 XIU/ml [18]: 32%
- Relative inhibition, % at 1, 26 XIU/ml [19]: 77%
- Relative inhibition, % at 3, 15 XIU/ml [19]: 48%
- Relative inhibition, % at 6, 3 XIU/ml [19]: 29%
- Relative inhibition, % at 12, 6 XIU/ml [19]: 23%
- Relative inhibition, % at 1, 26 XIU/ml [20]: 80%
- Relative inhibition, % at 3, 15 XIU/ml [20]: 47%
- Relative inhibition, % at 6, 3 XIU/ml [20]: 28%
- Relative inhibition, % at 12, 6 XIU/ml [20]: 27%
- Relative inhibition, % at 1, 26 XIU/ml [21]: 80%
- Relative inhibition, % at 3, 15 XIU/ml [21]: 36%
- Relative inhibition, % at 6, 3 XIU/ml [21]: 16%
- Relative inhibition, % at 12, 6 XIU/ml [21]: 14%
- Relative inhibition, % at 1, 26 XIU/ml [22]: 114%
- Relative inhibition, % at 3, 15 XIU/ml [22]: 119%
- Relative inhibition, % at 6, 3 XIU/ml [22]: 116%
- Relative inhibition, % at 12, 6 XIU/ml [22]: 115%
- Relative inhibition, % at 1, 26 XIU/ml [23]: 81%
- Relative inhibition, % at 3, 15 XIU/ml [23]: 40%
- Relative inhibition, % at 6, 3 XIU/ml [23]: 18%
- Relative inhibition, % at 12, 6 XIU/ml [23]: 16%
- Relative inhibition, % at 1, 26 XIU/ml [24]: 94%
- Relative inhibition, % at 3, 15 XIU/ml [24]: 83%
- Relative inhibition, % at 6, 3 XIU/ml [24]: 70%
- Relative inhibition, % at 12, 6 XIU/ml [24]: 53%
- Relative inhibition, % at 1, 26 XIU/ml [25]: 90%
- Relative inhibition, % at 3, 15 XIU/ml [25]: 81%
- Relative inhibition, % at 6, 3 XIU/ml [25]: 50%
- Relative inhibition, % at 12, 6 XIU/ml [25]: 22%
- Relative inhibition, % at 1, 26 XIU/ml [26]: 101%
- Relative inhibition, % at 3, 15 XIU/ml [26]: 88%
- Relative inhibition, % at 6, 3 XIU/ml [26]: 70%
- Relative inhibition, % at 12, 6 XIU/ml [26]: 50%
- Relative inhibition, % at 1, 26 XIU/ml [27]: 85%
- Relative inhibition, % at 3, 15 XIU/ml [27]: 52%
- Relative inhibition, % at 6, 3 XIU/ml [27]: 29%
- Relative inhibition, % at 12, 6 XIU/ml [27]: 22%

Source: patent publication US20030180895A1
